Assay results from patent US7115711 (GENERAL HOSPITAL, dated 2006).

Assays:
LexA-RXR [1] = molecular target: T1, LexA-RXR (bacterial; human, UniProt P0A7C2 1-202; P19793 196-462, limits assumed); test: yeast interaction trap screen; clones showing specific interaction with LexA-RXR; one clone starting at amino acid 170
T1 construct: also called Lex fusion RXR
T1 sequence (looked up): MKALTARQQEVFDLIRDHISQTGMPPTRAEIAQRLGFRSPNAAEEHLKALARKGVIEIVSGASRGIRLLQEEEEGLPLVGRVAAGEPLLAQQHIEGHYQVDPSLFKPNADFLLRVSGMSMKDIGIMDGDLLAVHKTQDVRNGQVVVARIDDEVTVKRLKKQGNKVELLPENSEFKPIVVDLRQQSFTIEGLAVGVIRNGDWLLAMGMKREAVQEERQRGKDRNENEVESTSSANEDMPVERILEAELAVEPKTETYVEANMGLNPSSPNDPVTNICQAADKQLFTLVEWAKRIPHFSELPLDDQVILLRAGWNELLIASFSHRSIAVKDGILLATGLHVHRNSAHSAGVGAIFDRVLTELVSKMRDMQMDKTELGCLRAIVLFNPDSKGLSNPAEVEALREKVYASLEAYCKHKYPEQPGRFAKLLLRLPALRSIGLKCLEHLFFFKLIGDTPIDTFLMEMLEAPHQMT
Method: (§1) From 3×10^6 primary yeast transformants, a number of β-gal expressing colonies were identified in two independent screens carried out in the presence or absence of 9-cis-RA. Since expression of the B42-cDNA fusion proteins was induced by growth on galactose, candidates obtained from each condition were tested for galactose-dependent expression of both β-gal and LEU2, in the presence or absence of 9-cis-RA, using appropriate indicator plates (see below).
(§2) Candidates showing specific interaction with LexA-RXR were sequenced across the B42 fusion junction using an appropriate vector primer, and additional sequence was determined. The deduced amino acid sequences were compared to those in the GenBank and EMBL databases using the GCG (Devereux et al., Nucleic Acids Res. 12:387–395, 1984) and BLAST programs (Altschul et al., J. Mol. Biol. 215:403–410, 1990). […] All of these clones included intact ligand binding domains, as expected from the fact that the major heterodimerization function lies within that domain. For PPAR (Issemann et al., Nature 347:645–650, 1990), three clones started at amino acid 84, just N-terminal to the DNA binding (C) domain, four others started at 91, within the C domain, and one at 170, just past the C domain. For RAR (Leroy et al., EMBO J. 10:59–69), all six clones started at amino acid 132, within the C domain.

LexA-RXR [2] = molecular target: T1, LexA-RXR; test: yeast interaction trap screen; clones showing specific interaction with LexA-RXR; all six clones start at amino acid 132
Method: as §1, §2

Human RXRα protein = molecular target: T2, Human RXRα protein (human, UniProt P19793 1-462, limits assumed); test: gel shift of in vitro translated RIP with E. coli-expressed RXRα on labeled βRARE; the complex with RXR is seen on DNA
T2 construct: Used in the gel shifts
T2 sequence (looked up): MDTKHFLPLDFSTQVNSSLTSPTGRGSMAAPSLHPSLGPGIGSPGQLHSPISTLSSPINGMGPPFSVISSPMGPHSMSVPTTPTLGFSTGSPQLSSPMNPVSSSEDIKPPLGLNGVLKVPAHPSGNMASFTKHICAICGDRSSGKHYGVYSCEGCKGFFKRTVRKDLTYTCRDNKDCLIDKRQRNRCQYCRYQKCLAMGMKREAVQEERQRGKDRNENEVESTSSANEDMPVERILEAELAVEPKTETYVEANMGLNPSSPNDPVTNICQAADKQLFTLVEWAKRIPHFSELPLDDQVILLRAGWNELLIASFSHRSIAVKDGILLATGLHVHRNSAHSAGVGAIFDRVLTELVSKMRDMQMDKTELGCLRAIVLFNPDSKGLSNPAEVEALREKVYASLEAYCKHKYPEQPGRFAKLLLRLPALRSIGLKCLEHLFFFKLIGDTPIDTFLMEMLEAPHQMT
Method: The binding of the RIP14-2 isoform to this element was weaker than that of RIP14-1 when similar amounts of RIP14 proteins were used. […] Several other DNA elements were tested in the gel shift assay, including the retinoic acid response element from the promoter of the human RARβ2 isoform (βRARE) (de The et al., Nature 343:177–180, 1990). In the presence of RXR, the βRARE was bound by both the RIP14 isoforms and RIP15 (FIG. 8, panel B). Again, the binding of the RIP14-2/RXR heterodimer was weaker than the RIP14-1/RXR heterodimer when a similar amount of RIP14 proteins were used (FIG. 8, panel B, lanes 10 and 14).
RIP14 and RIP15 proteins were produced by in vitro translation (Promega TNT, Madison, Wis.) using expression vectors containing the RIP genes following a T7 promoter. To generate full length RIP14-2 constructs, fragments from RIP14-1 clone No. 15 containing regions from the middle of the E domain to the 3' end replaced the corresponding regions of RIP14-2 Clones No. 3 or 12, respectively. Sequences were confirmed by DNA sequencing. Human RXRα protein was expressed in E. coli using a bacterial expression vector based on the bacteriophage T7 promoter (Carter et al., Mol. Cell. Biol. in press., 1994). […]

LexA-MB67 = molecular target: T3, LexA-MB67 (bacterial, UniProt P0A7C2 1-202; Q14994 76-348, limits assumed); test: yeast interaction trap, X-gal plate; W = white (no interaction)
T3 construct: Made by PCR, 'analogous' to LexA-RXR and LexA-TR; also called Lex fusion MB67
T3 sequence (looked up): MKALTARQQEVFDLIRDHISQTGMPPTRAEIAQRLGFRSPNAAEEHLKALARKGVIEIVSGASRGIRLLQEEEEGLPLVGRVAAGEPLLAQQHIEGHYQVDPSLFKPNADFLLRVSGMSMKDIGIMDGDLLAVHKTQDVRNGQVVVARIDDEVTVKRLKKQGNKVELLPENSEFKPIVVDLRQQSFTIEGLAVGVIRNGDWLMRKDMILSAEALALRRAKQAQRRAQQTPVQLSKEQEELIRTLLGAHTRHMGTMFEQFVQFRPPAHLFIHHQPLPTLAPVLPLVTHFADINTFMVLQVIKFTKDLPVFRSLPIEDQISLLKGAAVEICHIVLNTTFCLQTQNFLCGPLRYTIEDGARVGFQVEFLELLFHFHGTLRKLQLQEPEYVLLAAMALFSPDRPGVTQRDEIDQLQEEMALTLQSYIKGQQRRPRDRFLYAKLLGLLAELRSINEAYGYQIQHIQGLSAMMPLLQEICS
Method: (§3) Interactions of the RIP clones with other superfamily members, including RAR, TR, the glucocorticoid receptor (GR), and MB67, an orphan isolated in this lab (Baes et al., Mol. Cell. Biol. 14:1544–1552, 1994) were also tested using a series of appropriate LexA fusions. In particular, the experiments shown in Table 1 were carried out as follows. Yeast transformants containing a lacZ reporter gene under the control of LexA binding sites and the indicated B42- and Lex-fusion protein expression vectors were transferred onto galactose-Ura⁻His⁻Trp⁻ plates containing X-gal and incubated for two days. Relative levels of β-galactosidase activity were estimated and are depicted as follows: B, blue (strong interaction); LB, light blue (weak interaction); W, white (no interaction); nt, not tested. At least three separate colonies were tested on the same plate for interaction. To test the effects of ligands, 100 µl of a 10^-6M solution of the appropriate ligand was spread onto plates just before inoculation of cells (9-cis-RA for RXR, T3 for TR, and all-trans-RA for RAR). For B42-PPAR, the plasmid isolated from the screening was used. Both full length and truncated RAR fusions to LexA were tested with identical results for all the B42 fusions except B42-110, which was tested only with the full length fusion.

LexA-TR = molecular target: T4, LexA-TR (bacterial; rat, UniProt P0A7C2 1-202; P18113 170-461, limits assumed); test: yeast interaction trap, X-gal plate, with T3; W = white (no interaction)
T4 construct: also called Lex fusion TR
T4 sequence (looked up): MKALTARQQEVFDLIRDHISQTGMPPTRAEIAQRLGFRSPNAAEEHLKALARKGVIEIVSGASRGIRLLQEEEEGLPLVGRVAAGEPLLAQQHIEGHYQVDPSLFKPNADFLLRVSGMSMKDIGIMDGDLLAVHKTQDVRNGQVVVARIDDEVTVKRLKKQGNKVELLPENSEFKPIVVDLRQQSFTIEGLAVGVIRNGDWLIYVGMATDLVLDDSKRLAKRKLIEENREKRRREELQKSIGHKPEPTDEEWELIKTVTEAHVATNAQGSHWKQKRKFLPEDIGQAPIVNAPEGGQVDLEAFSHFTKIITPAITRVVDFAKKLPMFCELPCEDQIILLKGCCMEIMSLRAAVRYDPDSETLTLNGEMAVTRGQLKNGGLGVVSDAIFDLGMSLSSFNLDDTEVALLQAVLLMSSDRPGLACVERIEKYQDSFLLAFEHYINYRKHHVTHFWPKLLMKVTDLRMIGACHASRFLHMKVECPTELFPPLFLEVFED
Method: as §3

B1: B42-PPAR clone starting at amino acid 170 (other, mouse, UniProt P23204 170-468, looked up, not shown: large carriers)
chain: AIRFGRMPRSEKAKLKAEILTCEHDLKDSETADLKSLGKRIHEAYLKNFNMNKVKARVILAGKTSNNPPFVIHDMETLCMAEKTLVAKMVANGVEDKEAEVRFFHCCQCMSVETVTELTEFAKAIPGFANLDLNDQVTLLKYGVYEAIFTMLSSLMNKDGMLIAYGNGFITREFLKNLRKPFCDIMEPKFDFAMKFNALELDDSDISLFVAAIICCGDRPGLLNIGYIEKLQEGIVHVLKLHLQSNHPDDTFLFPKLLQKMVDLRQLVTEHAQLVQVIKKTESDAALHPLLQEIYRDMY
notes: range 170-C-terminus; Only the start is stated; also called PPAR (one clone)
binding result (LexA-RXR [1]): binds

B2: B42-RAR (other, mouse, UniProt P11416 132-462, looked up, not shown: large carriers)
chain: INKVTRNRCQYCRLQKCFDVGMSKESVRNDRNKKKKEAPKPECSESYTLTPEVGELIEKVRKAHQETFPALCQLGKYTTNNSSEQRVSLDIDLWDKFSELSTKCIIKTVEFAKQLPGFTTLTIADQITLLKAACLDILILRICTRYTPEQDTMTFSDGLTLNRTQMHNAGFGPLTDLVFAFANQLLPLEMDDAETGLLSAICLICGDRQDLEQPDKVDMLQEPLLEALKVYVRKRRPSRPHMFPKMLMKITDLRSISAKGAERVITLKMEIPGSMPPLIQEMLENSEGLDTLSGQSGGGTRDGGGLAPPPGSCSPSLSPSSHRSSPATQSP
notes: range 132-C-terminus; All six isolated clones start at amino acid 132; also called RARα (six clones)
binding result (LexA-RXR [2]): binds

B3: RIP15 (receptor)
chain: MSSPTSSLDTPVPGNGSPQPSTSATSPTIKEEGQETDPPPGSEGSSSAYIVVILEPEDEPERKRKKGPAPKMLGHELCRVCGDKASGFHYNVLSCEGCKGFFRRSVVHGGAGRYACRGSGTCQMDAFMRRKCQLCRLRKCKEAGMREQCVLSEEQIRKKRIQKQQQQQPPPPSEPAASSSGRPAASPGTSEASSQGSGEGEGIQLTAAQELMIQQLVAAQLQCNKRSFSDQPKVTPWPLGADPQSRDARQQRFAHFTELAIISVQEIVDFAKQVPGFLQLGREDQIALLKASTIEIMLLQTARRYNHETECITFLKDFTYSKDDFHRAGLQVEFINPIFEFSRAMRRLGLDDAEYALLIAINIFSADRPNVQEPSRVEALQQPYVEALLSYTRIKRPQDQLRFPRMLMKLVSLRTLSSVHSEQVFALRLQDKKLPPLLSEIWDVHE
notes: Intact 446 amino acid protein; It was translated in vitro for gel shifts and expressed from a CDM vector in HepG2 cells
binding result (Human RXRα protein): binds

B4: B42-RIP15 (other, not shown: large carriers)
chain: EEQIRKKRIQKQQQQQPPPPSEPAASSSGRPAASPGTSEASSQGSGEGEGIQLTAAQELMIQQLVAAQLQCNKRSFSDQPKVTPWPLGADPQSRDARQQRFAHFTELAIISVQEIVDFAKQVPGFLQLGREDQIALLKASTIEIMLLQTARRYNHETECITFLKDFTYSKDDFHRAGLQVEFINPIFEFSRAMRRLGLDDAEYALLIAINIFSADRPNVQEPSRVEALQQPYVEALLSYTRIKRPQDQLRFPRMLMKLVSLRTLSSVHSEQVFALRLQDKKLPPLLSEIWDVHE
notes: Original yeast clone; Its B42 fusion junction is near the beginning of the hinge (D) domain, with no residue number stated; also called B42 fusion 15; RIP15 chimera
binding result (LexA-MB67): no binding | binding result (LexA-TR): no binding
